Assay results taken from paper PMC9537944, “eIF4G1 N-terminal intrinsically disordered domain is a multi-docking station for RNA, Pab1, Pub1, and self-assembly” (Frontiers in Molecular Biosciences, 2022).

Tests used:
[1] = target: the molecule itself; assay: NMR paramagnetic relaxation enhancement (intermolecular PRE); 15N-labelled wild-type eIF4G1 1-249 mixed 1:1 with TEMPO spin-labelled eIF4G1 1-249 Q109C at natural isotopic abundance; intensity ratios of 1H-15N HSQC peaks, oxidised against ascorbate-reduced label; 25 mM potassium phosphate pH 6.5, 25 mM NaCl, 1 mM DTT
eIF4G1 1-82 = target: T1, eIF4G1 1-82 (Saccharomyces cerevisiae, UniProt P39935 1-82); assay: NMR (1H-15N HSQC titration); shifts centered at R34, R55, G65; new Arg side-chain NeHe signal; NMR: 25 mM potassium phosphate pH 6.5, 25 or 150 mM NaCl, 1 mM DTT, 10% D2O, 25 C, 800 MHz (general NMR conditions; not stated specifically for RNA titrations); conditions: protein: recombinant; tags: N-terminal gs left after TEV cleavage of TrxA-6xHis; single strand
T1 sequence: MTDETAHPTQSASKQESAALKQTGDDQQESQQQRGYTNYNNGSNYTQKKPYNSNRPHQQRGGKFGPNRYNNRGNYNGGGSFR

B1: eIF4G1_(1-249), N-terminal intrinsically disordered region of eIF4G1 (domain or fragment, Saccharomyces cerevisiae, UniProt P39935 1-249, looked up)
chain: MTDETAHPTQSASKQESAALKQTGDDQQESQQQRGYTNYNNGSNYTQKKPYNSNRPHQQRGGKFGPNRYNNRGNYNGGGSFRGGHMGANSSNVPWTGYYNNYPVYYQPQQMAAAGSAPANPIPVEEKSPVPTKIEITTKSGEHLDLKEQHKAKLQSQERSTVSPQPESKLKETSDSTSTSTPTPTPSTNDSKASSEENISEAEKTRRNFIEQVKLRKAALEKKRKEQLEGSSGNNNIPMKTTPENVEEK
notes: 15N-labelled where it was the observed partner; Minor isoaspartate forms (12%-14%) are reported at positions 41 and 76; In the intermolecular PRE experiment the second copy was the Q109C mutant carrying a TEMPO spin label; also called eIF4G1 IDR; not shown: thioredoxin A, N-terminal, cleaved; 6xHis, internal (between thioredoxin A and the TEV site), cleaved
binding result [1]: binds

B2: A14 (ssRNA)
RNA: AAAAAAAAAAAAAA
binding result (eIF4G1 1-82): binds
